From patent US7446182
Like-named read-outs stand apart in the source and are kept apart here.

How the values were obtained:
[1] = target: Bacillus anthracis protective antigen (PA), 83 kDa polypeptide (Bacillus anthracis) (UniProt P13423); test: SPR, PA immobilized on CM5 chip
[2] = target: Bacillus anthracis protective antigen (PA), 83 kDa polypeptide (Bacillus anthracis) (UniProt P13423); test: SPR, PA immobilized on CM5 chip; remark: listed apart in the source
[3] = target: Bacillus anthracis protective antigen (PA), 83 kDa polypeptide (Bacillus anthracis) (UniProt P13423); test: SPR, PA immobilized on CM5 chip at low coupling density
[4] = target: Bacillus anthracis protective antigen (PA), 83 kDa polypeptide (Bacillus anthracis) (UniProt P13423); test: ELISA on PA; scFv kept 2 h at 4 C before the titration

Bacillus anthracis protective antigen (PA), 83 kDa polypeptide (Bacillus anthracis), sequence (P13423 30-764 limits assumed): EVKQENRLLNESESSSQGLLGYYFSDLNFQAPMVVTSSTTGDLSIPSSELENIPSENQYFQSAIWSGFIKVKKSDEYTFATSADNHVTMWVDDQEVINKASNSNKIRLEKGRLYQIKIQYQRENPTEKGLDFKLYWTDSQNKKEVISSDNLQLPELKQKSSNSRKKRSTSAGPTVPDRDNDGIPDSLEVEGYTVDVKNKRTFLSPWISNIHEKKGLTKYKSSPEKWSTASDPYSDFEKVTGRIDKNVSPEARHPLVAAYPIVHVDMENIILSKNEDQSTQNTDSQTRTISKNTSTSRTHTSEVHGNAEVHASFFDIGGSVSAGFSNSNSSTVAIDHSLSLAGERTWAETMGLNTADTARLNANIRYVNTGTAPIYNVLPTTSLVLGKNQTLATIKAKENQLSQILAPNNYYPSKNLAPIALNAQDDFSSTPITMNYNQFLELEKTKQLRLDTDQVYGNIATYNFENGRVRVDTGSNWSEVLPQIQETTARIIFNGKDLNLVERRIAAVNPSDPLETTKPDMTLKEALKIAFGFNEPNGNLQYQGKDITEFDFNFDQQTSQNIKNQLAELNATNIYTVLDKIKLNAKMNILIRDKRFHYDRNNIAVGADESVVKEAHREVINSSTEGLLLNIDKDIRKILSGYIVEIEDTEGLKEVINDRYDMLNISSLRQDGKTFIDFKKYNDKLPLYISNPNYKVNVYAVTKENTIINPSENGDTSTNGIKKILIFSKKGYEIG

“14B7 Fab (papain digest of the 14B7 mouse IgG1)” gave a Kd [1] of 12 nM, a koff [1] of 0.0033 s⁻¹ and a kon [1] of 300000 M⁻¹ s⁻¹. For the same substance, the koff [2] was 0.0035 s⁻¹ and the kon [2] was 310000 M⁻¹ s⁻¹.
With “14B7 monoclonal antibody (mouse IgG1 from hybridoma 14B7)” the koff [1] was 0.00135 s⁻¹, the kon [1] was 500000 M⁻¹ s⁻¹ and the Kd [3] was 2.3 nM.
“14B7 wild type scAb (scFv with a C-terminal human constant kappa domain)” gave a koff [1] of 0.003 s⁻¹ and a kon [1] of 290000 M⁻¹ s⁻¹.
14B7 wild type scFv gave a Kd [1] of 12 nM, a koff [1] of 0.0032 s⁻¹ and a kon [1] of 310000 M⁻¹ s⁻¹. For the same substance, the koff [2] was 0.0035 s⁻¹ and the EC50 (read off the curve) [4] was 0.05 µg/mL.
